Test results from patent US8173397B2, “Folded recombinant catalytic fragments of multidomain serine proteases, preparation and uses thereof” (TargetEx Kft., priority 2002, dated 2012).

Assays:
Assay type in all cases: biochemical
[1] = biological target: T1, live C3 (Homo sapiens, UniProt P01024); test: Cleavage of live C3 by MASP fragments, SDS-PAGE densitometry; conditions: from kcat/KM values
T1 construct: was isolated from fresh human serum; from tissue; host or cells: fresh human serum
Method: C2, C3, C3(NH3), C4 cleavage—Serial dilutions of MASP-1 and MASP-2 fragments ranging between concentrations of 1 μM and 10 pM were incubated at 37° C. in 20 mM HEPES, 140 mM NaCl, pH 7.4 with C2, C3, C3(NH3) or C4 at typical concentrations of 0.5-1 μM. The cleavage was followed by SDS-PAGE under reducing conditions. Desirable concentrations of the MASP fragments for further detailed kinetic analysis were chosen to be where half of the protein substrates were hydrolyzed during the first 20 minutes of incubation. The protein substrates C2, C3, C3(NH3) or C4 were then incubated with the selected concentrations of the MASP fragments at 37° C. in 20 mM HEPES, 140 mM NaCl, pH 7.4. Typically 11-13 samples were taken at varying time periods but always within 50 minutes from the beginning of the reaction. Cleavages rates were quantified by measuring the diminution of the cleaved chain visualized by Coomassie stained SDS-PAGs using a GEL DOC 1000 instrument and Molecular Analyst Software for densitometric calculations (Bio-Rad, Hercules, Calif., USA). The reactions were assumed to be of the Michaelis-Menten type. In the case of C3 and C3(NH3) cleavage a further reasonable assumption of KM>>[substrate] was made. […]

[2] = biological target: T2, C1-inhibitor (Homo sapiens, UniProt P05155); test: Rate of SDS stable complex formation of 125I-labelled MASP fragments with C1-inhibitor
T2 construct: Purification of C1-inh and Alpha-2-Macroglobulin; from tissue
T2 sequence (P05155 23-500): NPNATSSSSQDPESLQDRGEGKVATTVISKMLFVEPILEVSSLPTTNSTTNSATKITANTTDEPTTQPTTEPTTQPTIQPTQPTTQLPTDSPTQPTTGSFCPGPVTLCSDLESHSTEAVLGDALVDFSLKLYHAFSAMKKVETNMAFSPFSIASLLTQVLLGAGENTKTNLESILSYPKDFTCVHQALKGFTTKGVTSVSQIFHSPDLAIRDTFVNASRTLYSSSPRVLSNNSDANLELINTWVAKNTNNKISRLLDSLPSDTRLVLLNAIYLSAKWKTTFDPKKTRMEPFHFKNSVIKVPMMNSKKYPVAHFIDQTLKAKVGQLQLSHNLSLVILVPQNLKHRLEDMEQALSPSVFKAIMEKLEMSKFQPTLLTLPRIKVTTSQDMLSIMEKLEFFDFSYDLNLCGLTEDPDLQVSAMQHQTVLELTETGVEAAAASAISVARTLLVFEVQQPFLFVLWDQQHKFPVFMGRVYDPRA
Method: To assess the rate of SDS stable complex formation between the MASP-1 and MASP-2 CCP1-CCP2-SP fragments and C1-inhibitor, the ^125I-labelled MASP fragments at concentrations ranging between 30-100 nM were incubated with 100-350 nM C1-inhibitor at 37° C. in 20 mM HEPES, 140 mM NaCl, pH 7.4 for 40 minutes. Typically 11-13 samples were taken at varying time periods. The reactions were stopped by reducing sample buffer containing 0.125 M Tris, 4.8% SDS, 8 M urea 20% glycerol, 720 mM mercaptoethanol, 0.02% bromophenol blue, pH6.8. The samples were further incubated at 37° C. for 30 minutes and run on reducing SDS-PAGE. Cleavages rates were visualized by means of autoradiography and the diminution of the reacted MASP chain was quantified using a GEL DOC 1000 instrument and Molecular Analyst Software for densitometric calculations (Bio-Rad, Hercules, Calif., USA). The kinetic constants were calculated assuming irreversible inhibition proceeded by reversible enzyme-inhibitor complex formation. Using steady-state approximation and neglecting the starting enzyme concentration compared to the starting inhibitor concentration ([I0]>>[E0]) the data was regressed on the following equation using non-linear regression methods: [E]=[E0]exp(−kobst); kobs=k2[I0]/(Ki+[I0]), where kobs is the observed pseudo-first order rate of reaction, k2 is the rate of irreversible enzyme-inhibitor complex formation and Ki is the inhibitory constant.

[3] = biological target: T3, C2 (Homo sapiens, UniProt P06681); test: C2 cleavage by MASP fragments; conditions: 37° C., pH 7.4; averages of 2 to 4 experiments, standard errors
T3 construct: from tissue
T3 sequence (P06681 21-752): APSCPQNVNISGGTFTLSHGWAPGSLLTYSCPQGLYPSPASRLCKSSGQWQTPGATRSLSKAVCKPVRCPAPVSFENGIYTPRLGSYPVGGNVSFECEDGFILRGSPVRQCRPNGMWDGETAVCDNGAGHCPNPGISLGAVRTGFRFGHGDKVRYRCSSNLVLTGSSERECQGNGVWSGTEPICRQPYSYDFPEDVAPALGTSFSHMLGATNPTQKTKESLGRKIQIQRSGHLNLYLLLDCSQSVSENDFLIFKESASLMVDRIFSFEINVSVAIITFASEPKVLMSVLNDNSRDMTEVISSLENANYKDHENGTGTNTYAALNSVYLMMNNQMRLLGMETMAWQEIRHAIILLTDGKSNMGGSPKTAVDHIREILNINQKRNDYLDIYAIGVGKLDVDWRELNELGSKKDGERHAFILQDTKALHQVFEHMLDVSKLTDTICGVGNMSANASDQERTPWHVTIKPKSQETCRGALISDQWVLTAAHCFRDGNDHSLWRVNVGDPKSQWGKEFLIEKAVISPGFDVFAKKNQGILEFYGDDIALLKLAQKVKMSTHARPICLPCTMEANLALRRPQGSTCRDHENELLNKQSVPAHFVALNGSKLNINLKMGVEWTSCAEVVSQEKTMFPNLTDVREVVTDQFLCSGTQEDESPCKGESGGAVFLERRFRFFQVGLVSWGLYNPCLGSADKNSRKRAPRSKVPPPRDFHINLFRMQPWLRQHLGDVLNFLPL
Method: C2, C3, C3(NH3), C4 cleavage—Serial dilutions of MASP-1 and MASP-2 fragments ranging between concentrations of 1 μM and 10 pM were incubated at 37° C. in 20 mM HEPES, 140 mM NaCl, pH 7.4 with C2, C3, C3(NH3) or C4 at typical concentrations of 0.5-1 μM. The cleavage was followed by SDS-PAGE under reducing conditions. Desirable concentrations of the MASP fragments for further detailed kinetic analysis were chosen to be where half of the protein substrates were hydrolyzed during the first 20 minutes of incubation. The protein substrates C2, C3, C3(NH3) or C4 were then incubated with the selected concentrations of the MASP fragments at 37° C. in 20 mM HEPES, 140 mM NaCl, pH 7.4. Typically 11-13 samples were taken at varying time periods but always within 50 minutes from the beginning of the reaction. Cleavages rates were quantified by measuring the diminution of the cleaved chain visualized by Coomassie stained SDS-PAGs using a GEL DOC 1000 instrument and Molecular Analyst Software for densitometric calculations (Bio-Rad, Hercules, Calif., USA). The reactions were assumed to be of the Michaelis-Menten type. In the case of C3 and C3(NH3) cleavage a further reasonable assumption of KM>>[substrate] was made. The constants KM, kcat and […] were estimated by unbiased non-linear regression methods regressing the data on the following equations: t=([S0]−[S]+KMln([S0]/[S]))/(kcat[E0]) or in the case of C3 and C3(NH3) cleavage on [S]=[S0]exp(−t[E0]kcat/KM).

T1 sequence (P01024 672-1663 limits assumed): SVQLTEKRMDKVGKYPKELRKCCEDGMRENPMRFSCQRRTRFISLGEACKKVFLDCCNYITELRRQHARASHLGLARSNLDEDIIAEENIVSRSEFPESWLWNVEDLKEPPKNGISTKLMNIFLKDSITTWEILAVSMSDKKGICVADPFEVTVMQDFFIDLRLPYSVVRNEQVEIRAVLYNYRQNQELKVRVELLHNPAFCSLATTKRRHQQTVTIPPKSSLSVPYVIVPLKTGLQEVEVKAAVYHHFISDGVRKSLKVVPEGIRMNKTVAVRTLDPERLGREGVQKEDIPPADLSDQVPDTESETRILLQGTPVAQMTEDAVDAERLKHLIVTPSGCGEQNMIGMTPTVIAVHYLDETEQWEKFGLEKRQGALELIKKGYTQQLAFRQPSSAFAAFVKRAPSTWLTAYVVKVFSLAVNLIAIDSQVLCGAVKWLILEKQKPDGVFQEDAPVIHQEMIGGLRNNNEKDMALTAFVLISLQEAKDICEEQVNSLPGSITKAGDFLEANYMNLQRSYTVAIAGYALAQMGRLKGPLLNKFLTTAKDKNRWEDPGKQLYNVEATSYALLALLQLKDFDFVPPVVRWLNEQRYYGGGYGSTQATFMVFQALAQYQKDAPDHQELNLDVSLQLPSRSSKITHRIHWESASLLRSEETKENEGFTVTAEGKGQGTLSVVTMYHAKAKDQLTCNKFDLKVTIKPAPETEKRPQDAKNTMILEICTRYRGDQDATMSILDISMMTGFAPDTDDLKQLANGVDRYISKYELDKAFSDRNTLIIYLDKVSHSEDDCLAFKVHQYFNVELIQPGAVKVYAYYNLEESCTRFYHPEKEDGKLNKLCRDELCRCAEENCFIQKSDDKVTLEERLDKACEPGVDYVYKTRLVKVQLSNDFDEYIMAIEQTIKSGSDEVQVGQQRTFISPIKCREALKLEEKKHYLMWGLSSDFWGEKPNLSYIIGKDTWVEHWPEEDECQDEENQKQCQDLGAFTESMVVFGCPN
T1 sequence (P01024 23-667 partner limits assumed): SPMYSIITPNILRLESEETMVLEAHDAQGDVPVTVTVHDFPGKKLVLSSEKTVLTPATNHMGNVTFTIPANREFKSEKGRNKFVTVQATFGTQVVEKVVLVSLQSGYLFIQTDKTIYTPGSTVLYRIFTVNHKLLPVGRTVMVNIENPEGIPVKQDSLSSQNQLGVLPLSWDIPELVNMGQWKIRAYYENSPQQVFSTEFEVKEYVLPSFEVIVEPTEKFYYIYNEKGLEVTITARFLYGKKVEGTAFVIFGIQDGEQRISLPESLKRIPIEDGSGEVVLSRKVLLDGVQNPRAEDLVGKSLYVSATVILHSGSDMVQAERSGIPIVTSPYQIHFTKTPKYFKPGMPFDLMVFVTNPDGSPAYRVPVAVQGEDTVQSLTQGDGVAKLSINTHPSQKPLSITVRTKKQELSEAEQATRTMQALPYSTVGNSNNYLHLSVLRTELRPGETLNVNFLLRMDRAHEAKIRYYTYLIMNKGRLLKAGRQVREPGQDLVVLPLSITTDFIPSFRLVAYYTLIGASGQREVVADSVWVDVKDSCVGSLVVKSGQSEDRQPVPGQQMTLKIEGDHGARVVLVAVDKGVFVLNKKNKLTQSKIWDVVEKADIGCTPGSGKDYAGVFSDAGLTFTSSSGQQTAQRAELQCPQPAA

B1: MASP-1γB: E. coli-expressed, refolded human MASP-1 CCP1-CCP2-SP fragment, Gly298 to Asn699 with N-terminal Ala-Ser-Met-Thr tag (protein)
chain 1: ASMTGNECPELQPPVHGKIEPSQAKYFFKDQVLVSCDTGYKVLKDNVEMDTFQIECLKDGTWSNKIPTCKIVDCRAPGELEHGLITFSTRNNLTTYKSEIKYSCQEPYYKMLNNNTGIYTCSAQGVWMNKVLGRSLPTCLPVCGLPKFSRKLMAR
chain 2: IFNGRPAQKGTTPWIAMLSHLNGQPFCGGSLLGSSWIVTAAHCLHQSLDPEDPTLRDSDLLSPSDFKIILGKHWRLRSDENEQHLGVKHTTLHPQYDPNTFENDVALVELLESPVLNAFVMPICLPEGPQQEGAMVIVSGWGKQFLQRFPETLMEIEIPIVDHSTCQKAYAPLKKKVTRDMICAGEKEGGKDACAGDSGGPMVTLNRERGQWYLVGTVSWGDDCGKKDRYGVYSYIHHNKDWIQRVTGVRN
- proteolytic action on 'live' C3 relative to 'dead' C3 (fold less) [1]: about 20 fold
- kobs with C1-inhibitor, fold less than for the MASP-2 CCP1-CCP2-SP fragment [2]: 5 fold
- kobs, pseudo-first order rate of reaction with C1-inh ([2]; [C1-inh] = 350 nM, 37° C., pH 7.4): 0.0014 s⁻¹
- C2 kcat [3]: 0.10 ± 0.07 s⁻¹
